These are literature values, as cited in PMC2737186.

The target of the data set is Cys1 (UniProt position 252, VVKNKCLAEGT).

Take “Mtu RecA intein (form studied by Shingledecker, Jiang and Paulus 2000) (Mycobacterium tuberculosis)”: the pKa is reported as 8.2.
